Measurements: article PMC10586629

target: EDE1-C10 IgG1; test: shotgun alanine-scanning mutagenesis library binding screen; conditions: read off a plot

Row | Substance | percent of parent [% WT]
1 | wild-type DENV2 16681 prM/E expressed in HEK-293T cells V309A | 57
2 | wild-type DENV2 16681 prM/E expressed in HEK-293T cells V97A | 74
3 | wild-type DENV2 16681 prM/E expressed in HEK-293T cells T155A | 81
4 | wild-type DENV2 16681 prM/E expressed in HEK-293T cells Q77A | 72
5 | wild-type DENV2 16681 prM/E expressed in HEK-293T cells V308A | 53
6 | wild-type DENV2 16681 prM/E expressed in HEK-293T cells L82A | 57
7 | wild-type DENV2 16681 prM/E expressed in HEK-293T cells G78A | 44
8 | wild-type DENV2 16681 prM/E expressed in HEK-293T cells I113A | 73
9 | wild-type DENV2 16681 prM/E expressed in HEK-293T cells M6A | 82
10 | wild-type DENV2 16681 prM/E expressed in HEK-293T cells N153A | 61
11 | wild-type DENV2 16681 prM/E expressed in HEK-293T cells K310A | -4
